Test [1] addresses human CD127 ECD (human) (UniProt P16871). Put plainly: SPR, BIAcore 3000; antibody captured on anti-human IgG (Fc), CD127 ECD 16-512 nM as analyte, 1:1 Langmuir fit. On the technique in general: In SPR one partner is held on a chip, and binding of the other changes the refractive index at the surface.
Test [2] has the same target. Briefly: SPR, BIAcore 3000; antibody captured on anti-human IgG (Fc), CD127 ECD as analyte; the column head says M, but kd/ka gives 1.9e-8 M, so nM is meant.
Test [3] has the same target. Put plainly: SPR, BIAcore 3000; antibody captured on anti-human IgG (Fc), CD127 ECD as analyte; the column head says M, but kd/ka gives 1.7e-8 M, so nM is meant.
Test [4] shares this target. Briefly: SPR, BIAcore 3000; antibody captured on anti-human IgG (Fc), CD127 ECD as analyte; the column head says M, but kd/ka gives 1.5e-8 M, so nM is meant.
Test [5] shares this target. Briefly: SPR, BIAcore 3000; antibody captured on anti-human IgG (Fc), CD127 ECD as analyte; the column head says M, but kd/ka gives 2.8e-8 M, so nM is meant.
For test [6], the target named is IL7R (analyte of the CDRH3 variant assays) (Homo sapiens (Human)) (UniProt P16871). Put plainly: SPR, BIAcore 3000; antibody captured on anti-human IgG (CM5), IL7R 1-64 nM as analyte, 1:1 fit, 25 C.
Test [7] has the same target. Put plainly: SPR, BIAcore T100; antibody captured on anti-human IgG (CM3), IL-7R 1-256 nM as analyte, 1:1 fit, 25 C.
For test [8] the target is unchanged. Briefly: SPR competition, BIAcore; IL7R 64 nM pre-incubated 3 h with antibody 1-256 nM, run over immobilised IL7 (competitor); run 1.
For test [9] the target is unchanged. Briefly: SPR competition, BIAcore; IL7R 64 nM pre-incubated 3 h with antibody 0.25-256 nM, run over immobilised IL7 (competitor); run 2.

From patent US20110200585A1 come the findings set out here.

Numbering of substitutions follows the chain as printed. Several values for one entry are separate records, joined by “and”; a condition that tells them apart may be missing. Equal entries are not always repeated.

B1: 6A3 H4-61_6L27 (antibody, V domains shown)
VH: QVQLQESGPGLVKPSETLSLTCTVSGYSVSTDYAWNWIRQPPGKGLEWIGYIFYSGSTTYTPSLKSRVTISRDTSKNQFSLKLSSVTAADTAVYYCARGGYDVNYFDYWGQGTTVTVSS
VL: DIQMLQSPSSLSASVGDRVTITCLASQTIGYWLAWYQQKPGKAPKLLIYAATRLADGVPSRFSGSGSGTMFTLTISSLQPEDFATYYCQQFFSYPWTFGGGTKVEIK
Broadly, the koff is the rate constant with which the complex falls apart. One may read the kon as a measure of how fast the partners come together. A higher kon goes with faster complex formation. One may read the Kd as the free concentration of one partner at which half of the binding sites on the other are occupied at equilibrium, for simple one-to-one binding. A low value points to a tighter complex. In test [1], B1 had a koff of 0.000299 s⁻¹ and a kon of 16000 M⁻¹ s⁻¹. In [2], this molecule registered a Kd of 19 nM.

B2: 6A3 H4-61_9L27 (antibody, V domains shown)
VH: B1 VH with S30T, I49M, V68I
VL: B1 VL
Turning to B2, in [1], the koff is 0.00122 s⁻¹ and the kon is 69900 M⁻¹ s⁻¹. In test [3], this molecule showed a Kd of 18 nM.

B3: 6A3 H4-61_8L27 (antibody, V domains shown)
VH: B1 VH with S30T, V68I
VL: B1 VL
For B3, in test [1], the koff turned out to be 0.00037 s⁻¹ and the kon is 24300 M⁻¹ s⁻¹. The Kd in test [4] stood at 15 nM.

B4: 6A3 H4-61_7L27 (antibody, V domains shown)
VH: B1 VH with S30T
VL: B1 VL
As for B4, in [1], the koff amounted to 0.00104 s⁻¹ and the association rate constant (kon) stood at 37700 M⁻¹ s⁻¹. Moreover, the Kd in test [5] was 28 nM.

B5: 1A11 Chimera (antibody, human IgG1, V domains shown)
VH: EVQLQQSGPELLKPGASMKISCKASGYSFTGYTMNWVKQSHGKNLEWIGLINPYNGVTSYNQKFKGKATLTVAKSSSTAYMELLSLTSEDSAVYYCARGDGNYWYFDVWGAGTTVTVSS
VL: EIVLTQSPAITAASLGQKVTITCSASSSVTYMHWYQQKSGTSPKPWIYEISKLASGVPVRFSGSGSGTSYSLTISSMEAEDAAIYYCQEWNYPYTFGGGTKLEIK
In test [1], B5 yielded a Kd of 3.22 nM, a koff of 0.000298 s⁻¹ and an on-rate (kon) of 92600 M⁻¹ s⁻¹.

B6: 1A11 H3L6 (antibody, V domains shown)
VH: QVQLVQSGAEVKKPGASVKVSCKASGYTFTGYTMNWVRQAPGQGLEWMGLINPYNGVTSYNQKFKGRVTLTRDTSISTAYMELSRLRSDDTAVYYCARGDGNYWYFDVWGQGTTVTVSS
VL: EIVLTQSPATLSLSPGERATLSCSASSSVTYMHWYQQKPGQAPRPWIYEISKLASGVPARFSGSGSGTDYTLTISSLEPEDFAVYYCQEWNYPYTFGGGTKVEIK
In test [1], B6 returned a Kd of 155 nM, a koff of 0.00282 s⁻¹ and a kon of 18200 M⁻¹ s⁻¹.

B7: BPC4402 (antibody, V domains shown)
VH: B6 VH with F106I
VL: B6 VL with W46L, V57I, Y70F
As a reminder, the IC50 is the point on the concentration scale where inhibition reaches its midpoint. Lower therefore signals greater potency in that assay. In test [6], B7 showed a Kd of 0.668 nM, a koff of 0.0002 s⁻¹ and a kon of 300000 M⁻¹ s⁻¹. In test [7], this molecule gave a Kd of 0.04 nM, a koff of 3.32e-05 s⁻¹ and a kon of 826000 M⁻¹ s⁻¹. Further, the IC50 in [8] was found to be 15.2 nM.

B8: BPC4401 (antibody, V domains shown)
VH: B6 VH with F106H
VL: B6 VL with W46L, V57I, Y70F
In test [6], B8 had a Kd of 0.582 nM, a koff of 0.000196 s⁻¹ and a kon of 337000 M⁻¹ s⁻¹. Besides, in [7], the Kd turned out to be 0.034 nM, the koff was 3.06e-05 s⁻¹ and the kon was 910000 M⁻¹ s⁻¹. The IC50 in [8] stood at 14.8 nM. In addition, the IC50 in [9] was 14.9 nM and 15.2 nM.

B9: 1A11 H3L5 (antibody, V domains shown)
VH: B6 VH
VL: B6 VL with V57I
In [1], B9 came in with a Kd of 207 nM, a koff of 0.00607 s⁻¹ and a kon of 29400 M⁻¹ s⁻¹.
